Like-named read-outs stand apart in the source and are kept apart here.
Legend:
E. coli wild-type LacY = E. coli wild-type LacY (Escherichia coli, UniProt P02920); settings: cited from earlier work
[1] = system: LNT-producing E. coli strain; assay: Lacto-N-tetraose production in lab scale fermentation (3 litre); format: cell-based
Description: The identity of lacto-N-tetraose being produced was determined by multiple reaction monitoring (MRM) using an LC triple-quadrupole MS detection system (Shimadzu LCMS-8050). Precursor ions were selected and analyzed in quadrupole 1, followed by collision-induced fragmentation (CID) with argon and selection of fragment ions in quadrupole 3.
The oligosaccharide LNT in particle-free culture supernatants or cytoplasmic fractions were separated by high performance liquid chromatography (HPLC) using a Waters XBridge Amide HPLC column (3.5 μm, 2.1 […] 50 mm) for both neutral or acidic sugars. Neutral sugars were eluted with isocratic flow of H2O with 0.1% (v/v) ammonium hydroxide. The HPLC system encompasses a Shimadzu Nexera X2 SIL-30ACMP autosampler run at 8° C., a Shimadzu LC-20AD pump, and a Shimadzu CTO-20AC column oven running at 35° C. for elution of neutral sugars and was adjusted to 50° C. for elution of acidic sugars. For the analysis of LNT 1 μl was injected into the instrument. Flow rate was set 0.3 mL/min corresponding to a run time of 5 min. LNT was analyzed in negative ion mode. The mass spectrometer was operated at unit resolution. Collision energy, Q1 and Q3 pre-bias were optimized for each analyte. Quantification methods were established using commercially available standards (Carbosynth and Elicityl).
The impact of reduced lactose import and reduced lactose sensitivity by a bacterial strain on its oligosaccharide production was analyzed in a small-scale fermentation.
In a first set of fermentations each of the bacterial strains was inoculated from a preculture in a fermentation broth containing 20 mM lactose.
In these cultures, the lactose feed (2.5 ml/L/h) was started at the end of the batch phase.

[2] = system: bacterial LNT production strains; assay: Lactose sensitivity of bacterial LNT production strains (OD600 in shaking flasks); format: cell-based, E. coli BL21(DE3); settings: 20 hours after addition, compared to growth in the absence of lactose
Description: The culture medium used to grow the cells for the production of the desired oligosaccharide contained: 3 g/L KH2PO4, 12 g/L K2HPO4, 5 g/L (NH4)SO4, 0.3 g/L citric acid, 0.1 g/L NaCl, 2 g/L MgSO4×7 H2O and 0.015 g/L CaCl2×6 H2O, supplemented with 1 ml/L trace element solution (54.4 g/L ammonium ferric citrate, 9.8 g/L MnCl2×4 H2O, 1.6 g/L […], 1 g/L CuCl2×2 H2O, 1.9 g/L MnCl2×4 H2O, 1.1 g/L Na2MoO4×2 H2O, 1.5 g/L Na2SeO3, 1.5 g/L NiSO4×6 H2O). The pH of the medium was adjusted to 7.0. Lactose was added to the medium in a concentration of 10 mM to 25 mM for synthesis of the desired oligosaccharide by the cells and for testing the cells' sensitivity to lactose.
The bacterial cells were grown at 30° C. and 80% relative humidity with constant agitation at 120 rpm. After 20 h culturing, the optical density of the pre-cultures was determined and the main cultures were inoculated to an OD600 of 0.3 in 25 ml of mineral salts medium. Lactose was added to the culture medium two hours after inoculation of the cultures to final concentrations of 10 or 25 mM. The optical densities (OD600) of the main cultures were determined 20 hours after addition of lactose.

lactose permease genes = assay: Expression analysis of lactose permease genes by qPCR; format: cell-based, E. coli BL21(DE3); settings: normalized to gapA, compared with parental strain, FIG. 3
Description: A metabolically engineering derivative of E. coli BL21(DE3) which was capable of producing lacto-N-tetraose (LNT) was obtained by genetic engineering.
For expression analyses individual clones obtained from above-referenced mutagenesis approach were inoculated in 25 ml mineral salts medium in shaking flasks. Expression analysis of each clone was performed in 3 replicates. The bacterial cells were grown at 30° C. and a relative humidity of 80% with constant agitation at 120 rpm. After 20 h of culturing, the optical densities of these precultures were determined and the main cultures were seeded to an OD600 of 0.05 in 25 ml of mineral salts medium. The main cultures were cultured for 20 h under the same conditions as the pre-cultures were cultured. Then the bacterial cells were harvested by centrifugation and used for extraction of RNA and subsequent expression analysis by qPCR. The relative quantification of expression levels was performed using the comparative Δ cycle threshold method, the calculated relative expression values were normalized to gapA and compared with the expression level in the parental strain used as control.

[3] = system: E. coli strains expressing different variants of the E. coli lactose permease LacY; format: cell-based
Description: Bacterial cell pellets from these cultures were used to inoculate 100 ml minimal medium in shaking flasks. These cultures were incubated for 16 hours at 37° C. in a shaker. The bacterial cells were then sedimented by centrifugation and the resulting pellets were washed twice with fresh cold (4° C.) culture medium and finally resuspended in cold medium. The optical density (OD600) of the cell suspension was set to 5 with cold medium, and the cell suspension is were stored on ice until use for the internalization assay.
Three minutes prior to the transport assay, the bacterial cells were placed in a 37° C. thermo block. […] […] The bacterial cells on the filter were washed twice with 100 mM LiCl and the filter was used subsequently to quantify remaining radioactivity in a Tricarb 2800 scintillation counter (Perkin Elmar, Waltham, MA). To this end, the filters were transferred into scintillation tubes and overlaid with 6 ml Rotiszint eco plus (Roth, Karlsruhe, DE).
In a second set of experiments, the transport assays were started by addition of a mixture of ^14C-labelled lactose and non-radiolabeled lactose to a final concentration of 5 mM lactose and 550,000 dpm. The bacterial cells were collected by filtration after 60 seconds incubation, and washed twice with 3 ml medium containing 5 mM unlabelled lactose.

Sequence of E. coli wild-type LacY (P02920 whole entry): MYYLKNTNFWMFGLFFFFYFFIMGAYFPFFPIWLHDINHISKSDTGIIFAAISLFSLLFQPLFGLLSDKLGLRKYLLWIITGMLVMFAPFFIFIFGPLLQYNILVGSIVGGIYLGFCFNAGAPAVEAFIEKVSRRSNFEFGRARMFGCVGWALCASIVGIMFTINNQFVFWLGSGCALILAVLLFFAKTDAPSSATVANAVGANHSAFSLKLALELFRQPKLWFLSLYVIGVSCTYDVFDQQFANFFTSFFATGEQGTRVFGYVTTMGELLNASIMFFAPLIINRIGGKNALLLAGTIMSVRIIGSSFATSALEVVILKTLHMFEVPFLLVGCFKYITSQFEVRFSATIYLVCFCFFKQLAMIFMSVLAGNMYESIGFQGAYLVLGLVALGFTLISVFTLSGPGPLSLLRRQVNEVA

## O=C[C@H](O)[C@@H](O)[C@H](O[C@@H]1O[C@H](CO)[C@H](O)[C@H](O)[C@H]1O)[C@H](O)CO [lactose, β-D-galactopyranosyl-(1→4)-D-glucose]
E. coli wild-type LacY
  Km: 620 µM

## OC[C@H]1O[C@H](OCC2O[C@@H](O)[C@H](O)[C@@H](O)[C@@H]2O)[C@H](O)[C@@H](O)[C@H]1O (stereo partly shown) [melibiose]
E. coli wild-type LacY
  Km: 240 µM

## CS[C@@H]1O[C@H](CO)[C@H](O)[C@H](O)[C@H]1O [TMG, methyl-1-thio-β,D-galactopyranoside, reference compound]
E. coli wild-type LacY
  Km: 540 µM

## OC[C@H]1O[C@@H](O[C@@H]2[C@@H](CO)OC(O)(CO)[C@H]2O)[C@H](O)[C@@H](O)[C@H]1O (mixture of isomers) [lactulose]
E. coli wild-type LacY
  Km: 240 µM

B1: LacY(L293R): E. coli LacY variant with leucine at position 293 substituted with arginine (protein, UniProt P02920 1-417, looked up, variant L293R)
Lactose permease: MYYLKNTNFWMFGLFFFFYFFIMGAYFPFFPIWLHDINHISKSDTGIIFAAISLFSLLFQPLFGLLSDKLGLRKYLLWIITGMLVMFAPFFIFIFGPLLQYNILVGSIVGGIYLGFCFNAGAPAVEAFIEKVSRRSNFEFGRARMFGCVGWALCASIVGIMFTINNQFVFWLGSGCALILAVLLFFAKTDAPSSATVANAVGANHSAFSLKLALELFRQPKLWFLSLYVIGVSCTYDVFDQQFANFFTSFFATGEQGTRVFGYVTTMGELLNASIMFFAPLIINRIGGKNALRLAGTIMSVRIIGSSFATSALEVVILKTLHMFEVPFLLVGCFKYITSQFEVRFSATIYLVCFCFFKQLAMIFMSVLAGNMYESIGFQGAYLVLGLVALGFTLISVFTLSGPGPLSLLRRQVNEVA
[1]; LNT fermentation, FIG. 7
  growth kinetics throughout the fermentation: regular growth kinetics
[1]; LNT fermentation, FIG. 7, compared to strain bearing LacY
  optical density reached in the culture: higher
[1]; continuous lactose feed 3.2 ml/L/h, lactose level kept high
  setback in the OC600 and lactose-caused cell lysis: without causing any setback in the OC600 and without apparent lactose-caused cell lysis
[1]; fermentation broth containing 20 mM lactose at inoculation
  growth: did not display any problems in growth
[2]; 10 mM lactose
  growth (OD600): not reduced
[2]; 25 mM lactose
  growth (OD600): not reduced
Lactose permease genes
  relative expression: at the same level
[3]; exogenous lactose 0.5 mM, 30 seconds, FIG. 5A
  lactose internalization (radioactivity incorporated): reduced but detectable
[3]; exogenous lactose 5 mM, 60 seconds, FIG. 5B
  lactose internalization (radioactivity incorporated): reduced but detectable

Reference: US20240110213A1 (Chr. Hansen HMO GmbH, priority 2020, published 2024)
